Where “and” joins values, the source holds several entries; their conditions need not be identical. Equal entries are not always repeated. One block for each binder: values may come before it.
Key:
[1] = biological target: T1, Strep-II-UNO_C (D. melanogaster, UniProt Q7JQU5 281-417); test: SEC-MALS + other: mass photometry; purified SU_C complex; SEC-MALS in 50 mM HEPES pH 7.5, 1 mM TCEP, 300 mM NaCl, 5–10 μM; mass photometry in 30 mM HEPES pH 7.8, 150 mM NaCl, 3 μM diluted 1:100; details: both partners purified
T1 construct: source: Hi5 insect cells, baculovirus, co-expressed with MBP-SNM; purified (Strep-Tactin, SEC); not shown: twin Strep-II, N-terminal, kept
T1 sequence (looked up): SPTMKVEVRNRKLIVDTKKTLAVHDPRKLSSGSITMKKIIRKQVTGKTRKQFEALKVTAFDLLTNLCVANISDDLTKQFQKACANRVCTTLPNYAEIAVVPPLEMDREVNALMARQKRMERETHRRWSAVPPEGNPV

[2] = biological target: the molecule itself; test: SEC-MALS; purified protein alone, 50 μL at 5–10 μM, 50 mM HEPES pH 7.5, 1 mM TCEP, 300 mM NaCl

stoichiometry N [1]: 1
B1: MBP-SNM (natural protein, D. melanogaster, UniProt Q9W0F4 1-973, looked up)
chain: MSDISFDDAVLNDSQASNQMDFEIREECSIAPNDEPVCVDGTVGDATNKSLLQMILSRKRLSPTNKRNSHIESVAKYWGEFYLDSPTAALVALLQFVVEVSGSHYQIPDDTSMPFSYSDILSNSSSHFSNTHIYPLIRKPADVFVNQVGSFLNALLLVANKFRSDSYQLFLVQLTNFVMACSESNIRTFRHTATMIGLKIMTILSDLKSLDDEIAMTVWMQMFNSMFVARSRDIVTDIRLLCISELGQWFARYPHCHLQPTSLRIFYEALNDGSGDVIQCSLDNISVLCRKDVLFSEIVALTSEFREILVELCLGKEDAIAEKSVQFLTHFHVLSAEILTDDVCRVLEQLIMAANRGLAQAAADLFILRRNGLDGETFCQRVKHLLQLFIECGHEQADYLVDSLIDNCELVLDWKSMIAVLLENPKSRELSDIHCSSLIAILLAGVKQATAGEIPPGRYTKDLKREPRQGAQERATKCLAPVLPELLRTYANRLQDIERLLELPKYFCFDYYHEQNRMGQLNELVEHFELIIFDQTSSTTVLQITVKTLEFLNRMIPIPLTKQLLNSAVTNYKMAWHRTQDTSPSRSTHNESNRLLATLRLLTVLSGHFNLSKWDLTEPLLFSLKMLLRQRRLPNGDDLPPEAFSLYLKACFCCLCWDMENLEGTALNNVDMDEYCDVLHHNLEDYLYVTFSLVGKSNTEPLAYPCFSYTCDLFVLHGNLCGSSNPSIRSVAHVPSGNELDILEGFLMEHFLELSPSDLMLETNSDQLQRIRSILTSYLKVVCLGVVPTMRASKFYEYYVKYHAPFGDVMRCSMELALQRNPIHFAMTMLHTCLLLYAKVFPDDTRHAAGQRALRPAEFSELMELANRLAKILISNPMEHRECVIALHRSGILFVFELAQKQPTEATKKLPFLRVLKVFVPLLLVQDKTRILNFFEPYEQLIIPTCNRNDIAHLKEYRNALRPRKTKSYPQAT
notes: SNM (stromalin in meiosis; SA-2), D. melanogaster; source: purified (Strep-Tactin, SEC); not shown: MBP, N-terminal, kept

B2: Mod(mdg4)_CP (purified) (domain or fragment)
chain: MADDEQFSLCWNNFNTNLSAGFHESLCRGDLVDVSLAAEGQIVKAHRLVLSVCSPFFRKMFTQMPSNTHAIVFLNNVSHSALKDLIQFMYCGEVNVKQDALPAFISTAESLQIKGLTDND
stoichiometry N [2]: 6

B3: MBP-UNO_N (domain or fragment, D. melanogaster, UniProt Q7JQU5 1-73, looked up)
chain: MPALTHQILTMQRAPPLNLSFKIQLLSGQNVILVECSGYESELFLPQIVGERITMQNVIQDRRCCAESMLLRD
notes: UNO, D. melanogaster, N-terminal domain aa 1-73; found as a tetramer (SEC peak 1) and as a dimer (SEC peak 2); source: E. coli BL21, purified (amylose/MBP Trap, ion exchange, SEC); not shown: His6, N-terminal, kept; MBP, N-terminal, kept
stoichiometry N [2]: 4 and 2
